Experimental data: patent US9200040B2, “Specific binding agents of human angiopoietin-2” (Amgen Inc., priority 2001, dated 2015)
Read-outs that look alike come from different tables or passages of the source. Primed or numbered codes have the meaning given here. Where no end group is shown, it is not given here. [ ]: non-standard residue; d: D form. Fc(6) = Fc vehicle: non-antigen-binding antibody fragment (from proteolytic digestion of an antibody) fused to the peptide; Fc(8) = Fc vehicle: non-antigen-binding antibody fragment fused to the peptide (peptibody); Fc(5) = non-antigen-binding fragment of an antibody (vehicle) fused to the peptide; Fc(9) = antibody Fc fragment, the non-antigen-binding fragment

Legend:
Colo-205 tumor = settings: for tumor growth vs. vehicle control: from study day 14: 2×Con4-C 350 μg/mouse s.c. twice a week, p<0.0001
Protocol: Female nude mice were injected subcutaneously with 2×10^6 Colo-205 cells plus Matrigel (2:1) on study day 0. At day 3, the Ang-2 peptibodies L1-7-N, L1-21-N, Con4-C, and 2×Con4-C were administered subcutaneously at the dose of […], twice a week.
Female nude mice were injected subcutaneously with 2×10^6 Colo-205 cells plus Matrigel (2:1) on study day 0.
Female nude mice were injected subcutaneously with 2×10^6 Colo-205 cells plus Matrigel (2:1) on study day 0. At day 3, Ang-2 peptibody 2×Con4-C or control peptibody were administered subcutaneously at the dose of 350 μg/day. Tumors from groups treated with control peptibody (as described in Table 5) were harvested either at Day 14 (size-matched control) or Day 18 (time-matched control). Tumors from 2×Con4(C) treated group were then harvested at Day 18. Tumor volumes were recorded at regular intervals, as shown.
Female nude mice were injected subcutaneously with 2×10^6 Colo-205 cells plus Matrigel (2:1) on study day 0. Treatment with 350 μg/mouse, s.c. twice a week, of the Ang-2 peptibody 2×Con4-C, or equivalent control peptibody started either at study day 3, 10 or 15. […] The results are set forth in FIG. 8 (body weights not shown).
Female nude mice were injected subcutaneously with 2×10^6 Colo-205 cells plus Matrigel (2:1) on study day 0. At study day 14, treatments were started with a) 350 μg/mouse, s.c. twice a week, of the Ang-2 peptibody 2×Con4-C, b) 20 mg/kg qwx3 i.p. of taxotere, or c) a combination of both.
Female nude mice were injected subcutaneously with 2×10^6 Colo-205 cells plus Matrigel (2:1) on study day 0. At study day 14 started treatments with a) 350 μg/mouse, s.c. twice a week, of the Ang-2 peptibody 2×Con4-C, b) 50 mg/kg qdx5 i.p. of 5-FU, or c) a combination of both.

huAng2 = biological target: T1, huAng2 (Homo sapiens, UniProt O15123); assay: BIAcore binding to huAng2 (Example 9); settings: Table 8
T1 construct: purchased R&D Systems BNO12103A
T1 sequence (O15123 68-496 limits assumed): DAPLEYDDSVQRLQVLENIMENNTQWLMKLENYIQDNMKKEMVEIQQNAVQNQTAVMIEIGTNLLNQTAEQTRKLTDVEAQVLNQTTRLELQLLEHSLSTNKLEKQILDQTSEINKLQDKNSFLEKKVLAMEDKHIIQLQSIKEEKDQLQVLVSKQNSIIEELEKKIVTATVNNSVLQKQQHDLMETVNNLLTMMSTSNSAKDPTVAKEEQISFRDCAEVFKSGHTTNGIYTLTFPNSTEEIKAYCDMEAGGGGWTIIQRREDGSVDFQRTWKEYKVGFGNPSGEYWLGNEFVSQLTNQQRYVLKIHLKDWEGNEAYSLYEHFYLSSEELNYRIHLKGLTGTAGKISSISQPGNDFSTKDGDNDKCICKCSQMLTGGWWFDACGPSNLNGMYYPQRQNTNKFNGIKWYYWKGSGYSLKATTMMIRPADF
Protocol: Six samples of anti-Ang2 peptibodies were tested for their binding activity to huAng2 (R&D Systems, BNO12103A) on BIAcore. Protein G was immobilized to a CM5 chip according to the standard amine-coupling protocol (BIAcore Inc.), and the peptibodies were then injected over a protein G surface for capturing (RL˜100 Ru). To test binding between hAng2 and the captured peptibody, 0.3 nM to 40 nM of huAng2 was injected over the captured peptibody surfaces, and binding sensorgrams were analyzed using BIAevaluation 3.0 (BIAcore Inc.).

mAng-2 = biological target: T2, mAng-2 (Mus musculus, UniProt O35608); assay: Affinity BIAcore (Example 2); assay type: binding, murine; settings: Table 6
T2 construct: made in house
T2 sequence (O35608 19-496): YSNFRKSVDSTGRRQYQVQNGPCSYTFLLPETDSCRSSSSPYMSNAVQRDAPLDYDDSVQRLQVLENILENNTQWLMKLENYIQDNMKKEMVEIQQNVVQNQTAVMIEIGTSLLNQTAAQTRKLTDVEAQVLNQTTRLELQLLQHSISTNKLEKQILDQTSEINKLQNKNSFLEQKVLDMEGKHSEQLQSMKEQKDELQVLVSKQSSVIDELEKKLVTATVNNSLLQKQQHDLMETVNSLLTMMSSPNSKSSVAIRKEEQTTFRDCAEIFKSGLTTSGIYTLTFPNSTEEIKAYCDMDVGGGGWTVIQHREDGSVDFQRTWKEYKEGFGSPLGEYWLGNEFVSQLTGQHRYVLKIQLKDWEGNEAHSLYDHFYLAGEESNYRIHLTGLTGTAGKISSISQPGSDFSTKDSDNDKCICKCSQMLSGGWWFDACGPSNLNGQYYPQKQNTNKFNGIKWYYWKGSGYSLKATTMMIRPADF
Protocol: (§1) Binding assays were carried out by first capturing about 100 Ru of each candidate anti-Ang-2 peptibody to the immobilized Protein G, after which various concentrations (0-100 nM) of huAng-2 or mAng-2 were injected over the bound antibody surface at a flow rate of 50 μl/min for 3 minutes. Peptibody binding kinetic parameters including ka (association rate constant), kd (dissociation rate constant) and KD (dissociation equilibrium constant) were determined using the BIA evaluation 3.1 computer program (Biacore, Inc.). Lower dissociation equilibrium constants indicated greater affinity of the peptibody for Ang-2.

hAng-2 = biological target: T3, hAng-2 (Homo sapiens, UniProt O15123); assay: Affinity BIAcore (Example 2); assay type: binding; settings: Table 6
T3 construct: conditioned media of human 293T cells transfected with full length human Ang-2 DNA; made in house; host or cells: conditioned media
T3 sequence (O15123 19-496): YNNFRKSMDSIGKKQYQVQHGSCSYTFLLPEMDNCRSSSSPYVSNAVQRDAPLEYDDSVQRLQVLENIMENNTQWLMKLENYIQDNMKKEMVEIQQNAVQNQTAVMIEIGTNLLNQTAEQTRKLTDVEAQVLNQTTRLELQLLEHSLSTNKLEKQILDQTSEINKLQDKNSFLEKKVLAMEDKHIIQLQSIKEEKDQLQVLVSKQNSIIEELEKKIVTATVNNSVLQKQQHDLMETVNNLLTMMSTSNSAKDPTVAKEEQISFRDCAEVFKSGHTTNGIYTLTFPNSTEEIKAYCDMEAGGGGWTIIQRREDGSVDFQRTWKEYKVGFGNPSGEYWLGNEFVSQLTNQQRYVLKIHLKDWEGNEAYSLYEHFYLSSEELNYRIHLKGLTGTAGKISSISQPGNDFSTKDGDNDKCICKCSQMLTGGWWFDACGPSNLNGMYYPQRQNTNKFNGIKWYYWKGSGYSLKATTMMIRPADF
Protocol: as §1

hAng-1 = biological target: T4, hAng-1 (Homo sapiens, UniProt Q15389); assay: Neutralization ELISA (Example 2); assay type: binding; settings: Table 5; about 1 nM Tie-2-Fc
T4 sequence (Q15389 16-498): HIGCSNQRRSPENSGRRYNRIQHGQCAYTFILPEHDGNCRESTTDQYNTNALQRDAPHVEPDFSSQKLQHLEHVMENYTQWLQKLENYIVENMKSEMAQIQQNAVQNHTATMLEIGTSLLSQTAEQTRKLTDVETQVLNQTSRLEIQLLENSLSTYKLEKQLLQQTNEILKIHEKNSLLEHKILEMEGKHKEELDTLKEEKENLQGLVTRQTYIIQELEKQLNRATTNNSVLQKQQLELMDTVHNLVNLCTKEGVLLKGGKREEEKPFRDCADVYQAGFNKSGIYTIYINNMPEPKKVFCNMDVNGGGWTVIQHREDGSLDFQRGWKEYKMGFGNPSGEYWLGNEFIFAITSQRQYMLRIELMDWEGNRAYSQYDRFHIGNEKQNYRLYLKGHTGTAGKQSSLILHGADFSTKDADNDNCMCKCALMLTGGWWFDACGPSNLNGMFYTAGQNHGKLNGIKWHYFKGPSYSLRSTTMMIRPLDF

| ka (huAng2) [M⁻¹ s⁻¹] | kd (huAng2) [s⁻¹] | hAng-1 IC 50 (hAng-1) | Compound | other results |
| --- | --- | --- | --- | --- |
|  |  |  | O=c1[nH]cc(F)c(=O)[nH]1 [Peptibody 5-FU, 5-FU, reference compound] | tumor growth vs. vehicle control (Colo-205 tumor; Example 19b, 5-FU 50 mg/kg qdx5 i.p., or both): Significant differences in tumor growth; transient reduction in body weight (Colo-205 tumor; Example 19b, at study day 20, followed by complete recovery): 18% |
|  |  |  | CC(=O)O[C@@]12CO[C@@H]1C[C@H](O)[C@@]1(C)C(=O)[C@H](O)C3=C(C)[C@@H](OC(=O)[C@H](O)[C@@H](NC(=O)OC(C)(C)C)c4ccccc4)C[C@@](O)([C@@H](OC(=O)c4ccccc4)[C@H]21)C3(C)C [taxotere, reference compound] | tumor growth vs. vehicle control (Colo-205 tumor; Example 19a, taxotere 20 mg/kg qwx3 i.p., or both): Significant differences in tumor growth |
| 290000 | 5.9e-05 |  | M-Fc-GGGGGAQ-PIRQEECDWDPWTCEHMWEV-LE (M[Fc(8)]GGGGGAQPIRQEECDWDPWTCEHMWEVLE; cysteine pairing not given here; also: Fc vehicle fused at position 2) [Con4-44 (C)] |  |
|  |  | No In- | MGAQ-FDYCEGVEDPFTFGCDNHLE-GGGGG-Fc (MGAQFDYCEGVEDPFTFGCDNHLEGGGGG[Fc(6)]; cysteine pairing not given here) [12-9 (N)] | mAng-2 ka (mAng-2): 720000 M⁻¹ s⁻¹; mAng-2 kd (mAng-2): 0.00023 s⁻¹; hAng-2 ka (hAng-2): 120000 M⁻¹ s⁻¹; hAng-2 kd (hAng-2): 0.001 s⁻¹ |
|  |  | No In- | MGAQ-HQICKWDPWTCKHWLEGGGGG-Fc (MGAQHQICKWDPWTCKHWLEGGGGG[Fc(5)]; not fully specified (bridges); printed as MGAQ-HQICKWDPWTCKHWLEGGGGG-Fc; cysteine pairing not given here) [8-14 (N)] |  |
| 560000 | 0.00014 |  | MGAQ-HTFQPLDELEETLYYQWLYDQL LEGGGGG-Fc (MGAQHTFQPLDELEETLYYQWLYDQLLEGGGGG[Fc]; also: Fc vehicle domain fused (peptibody)) [L1-21 (N)] |  |
|  |  | No In- | MGAQ-KRPCEEIFGGCTYQLEGGGGG-Fc (MGAQKRPCEEIFGGCTYQLEGGGGG[Fc(5)]; not fully specified (bridges); printed as MGAQ-KRPCEEIFGGCTYQLEGGGGG-Fc; cysteine pairing not given here) [Con1 (N)] |  |
|  |  | No In- | MGAQ-KRPCEEMWGGCNYDLEGGGGG-Fc (MGAQKRPCEEMWGGCNYDLEGGGGG[Fc(5)]; not fully specified (bridges); printed as MGAQ-KRPCEEMWGGCNYDLEGGGGG-Fc; cysteine pairing not given here) [8-8 (N)] |  |
| 150000 | 0.00011 |  | MGAQ-QKFQPLDELEQTLYEQFMLQQA LEGGGGG-Fc (MGAQQKFQPLDELEQTLYEQFMLQQALEGGGGG[Fc]; also: Fc vehicle domain fused (peptibody)) [L1-10 (N)] |  |
|  |  | No In- | MGAQ-QYGCDGFLYGCMINLE-GGGGG-Fc (MGAQQYGCDGFLYGCMINLEGGGGG-{Fc(9)}; not fully specified (bridges); printed as MGAQ-QYGCDGFLYGCMINLE-GGGGG-Fc; cysteine pairing not given here) [C17 (N)] |  |
| 370000 | 8.7e-05 |  | MGAQ-TNFMPMDDLEQRLYEQFILQQG-LEGGGGG-Fc (MGAQTNFMPMDDLEQRLYEQFILQQGLEGGGGG-Fc) [L1-7 (N)] |  |
|  |  | No In- | MGAQKFNPLDELEETLYEQFTFQQLEGGGGG-Fc [L1 (N)] | mAng-2 ka (mAng-2): 560000 M⁻¹ s⁻¹; mAng-2 kd (mAng-2): 0.00023 s⁻¹; hAng-2 ka (hAng-2): 290000 M⁻¹ s⁻¹; hAng-2 kd (hAng-2): 0.00091 s⁻¹ |
